The target in data set [1] is T1, CST g1.1 (human, UniProt Q2NKJ3;Q9H668;Q86WV5 1-1217;1-368;1-123, E951K;CTC1:Y949A). Put plainly: fluorescence anisotropy. In general terms: Fluorescence polarisation rises when a labelled molecule tumbles more slowly, as on binding a larger partner.
In data set [2] the target is T2, CST g2.1 (human, UniProt Q2NKJ3;Q9H668;Q86WV5 1-1217;1-368;1-123, N981D;Y983A;CTC1:R978E). Put plainly: fluorescence anisotropy.
Data set [3] has as its target T3, CST g3.1 (human, UniProt Q2NKJ3;Q9H668;Q86WV5 1-1217;1-368;1-123, K1167E;CTC1:K1164E). Put plainly: fluorescence anisotropy.
In data set [4] the target is CST g4.1 (negative control mutant) (human, UniProt Q2NKJ3;Q9H668;Q86WV5 1-1217;1-368;1-123, R744E;CTC1:K743E). Put plainly: fluorescence anisotropy.
Chain of CST g4.1 (negative control mutant) (Q2NKJ3 whole entry R744E, chain 1 of 3): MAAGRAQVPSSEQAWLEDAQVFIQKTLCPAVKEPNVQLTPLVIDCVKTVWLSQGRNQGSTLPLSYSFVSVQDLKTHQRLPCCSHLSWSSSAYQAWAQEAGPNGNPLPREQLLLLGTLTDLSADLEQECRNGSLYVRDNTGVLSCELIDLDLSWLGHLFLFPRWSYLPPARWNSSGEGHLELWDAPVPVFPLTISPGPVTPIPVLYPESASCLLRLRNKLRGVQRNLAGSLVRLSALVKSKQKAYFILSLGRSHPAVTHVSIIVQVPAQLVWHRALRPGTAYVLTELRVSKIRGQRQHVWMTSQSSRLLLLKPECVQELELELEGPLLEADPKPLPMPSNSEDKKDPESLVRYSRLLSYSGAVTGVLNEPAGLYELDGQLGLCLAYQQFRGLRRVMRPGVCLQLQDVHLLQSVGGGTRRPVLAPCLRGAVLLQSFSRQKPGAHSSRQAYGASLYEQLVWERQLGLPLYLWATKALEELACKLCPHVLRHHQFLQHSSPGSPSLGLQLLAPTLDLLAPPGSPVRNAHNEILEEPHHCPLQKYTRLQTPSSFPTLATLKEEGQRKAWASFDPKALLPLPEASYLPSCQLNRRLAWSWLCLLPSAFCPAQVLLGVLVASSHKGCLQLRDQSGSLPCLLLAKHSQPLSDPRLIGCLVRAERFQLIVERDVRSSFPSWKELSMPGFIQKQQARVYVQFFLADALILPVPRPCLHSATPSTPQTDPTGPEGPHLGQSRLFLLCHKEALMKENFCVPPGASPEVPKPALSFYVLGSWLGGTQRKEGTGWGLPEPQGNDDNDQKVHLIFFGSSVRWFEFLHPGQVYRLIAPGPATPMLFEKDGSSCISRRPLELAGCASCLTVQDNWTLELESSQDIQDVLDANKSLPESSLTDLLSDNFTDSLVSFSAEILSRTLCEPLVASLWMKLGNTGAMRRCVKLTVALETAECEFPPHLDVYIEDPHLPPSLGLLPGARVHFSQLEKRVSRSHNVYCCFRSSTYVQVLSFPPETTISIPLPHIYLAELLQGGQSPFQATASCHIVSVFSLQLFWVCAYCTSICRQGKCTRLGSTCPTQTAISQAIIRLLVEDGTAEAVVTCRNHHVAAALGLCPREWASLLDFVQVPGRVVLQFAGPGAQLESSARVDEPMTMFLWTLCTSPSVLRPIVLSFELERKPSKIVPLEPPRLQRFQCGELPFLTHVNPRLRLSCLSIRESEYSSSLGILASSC
Chain of CST g4.1 (negative control mutant) (Q9H668 whole entry, stated change not applied, chain 2 of 3): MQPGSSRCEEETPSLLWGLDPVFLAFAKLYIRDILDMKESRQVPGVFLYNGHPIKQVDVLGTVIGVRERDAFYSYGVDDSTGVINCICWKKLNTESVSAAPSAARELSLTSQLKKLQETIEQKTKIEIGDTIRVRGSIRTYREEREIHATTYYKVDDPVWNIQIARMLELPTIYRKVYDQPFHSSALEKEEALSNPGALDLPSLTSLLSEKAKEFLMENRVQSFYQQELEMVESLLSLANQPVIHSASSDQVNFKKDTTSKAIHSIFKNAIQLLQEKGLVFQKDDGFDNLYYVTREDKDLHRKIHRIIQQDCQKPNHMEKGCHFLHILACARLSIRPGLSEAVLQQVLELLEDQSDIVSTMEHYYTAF
Chain of CST g4.1 (negative control mutant) (Q86WV5 whole entry, stated change not applied, chain 3 of 3): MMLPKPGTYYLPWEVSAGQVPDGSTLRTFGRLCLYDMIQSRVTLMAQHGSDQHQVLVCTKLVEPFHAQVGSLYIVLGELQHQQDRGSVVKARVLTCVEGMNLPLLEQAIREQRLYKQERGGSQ
Data set [5] concerns the target T2, CST g2.1. Put plainly: EMSA. In general terms: A gel shift assay detects complexes by their altered migration in electrophoresis.
The target in data set [6] is T1, CST g1.1. Put plainly: EMSA.
Data set [7] concerns the target T3, CST g3.1. Put plainly: EMSA.

T1 sequence (Q2NKJ3 whole entry E951K, chain 1 of 3): as the sequence (Q2NKJ3 whole entry R744E, chain 1 of 3) above, with E744R, E951K counted along it
T1 sequence (Q9H668 whole entry, stated change not applied, chain 2 of 3): as the sequence (Q9H668 whole entry, stated change not applied, chain 2 of 3) above
T1 sequence (Q86WV5 whole entry, stated change not applied, chain 3 of 3): as the sequence (Q86WV5 whole entry, stated change not applied, chain 3 of 3) above
T2 sequence (Q2NKJ3 whole entry N981D/Y983A, chain 1 of 3): as the sequence (Q2NKJ3 whole entry R744E, chain 1 of 3) above, with E744R, N981D, Y983A counted along it
T2 sequence (Q9H668 whole entry, stated change not applied, chain 2 of 3): as the sequence (Q9H668 whole entry, stated change not applied, chain 2 of 3) above
T2 sequence (Q86WV5 whole entry, stated change not applied, chain 3 of 3): as the sequence (Q86WV5 whole entry, stated change not applied, chain 3 of 3) above
T3 sequence (Q2NKJ3 whole entry K1167E, chain 1 of 3): as the sequence (Q2NKJ3 whole entry R744E, chain 1 of 3) above, with E744R, K1167E counted along it
T3 sequence (Q9H668 whole entry, stated change not applied, chain 2 of 3): as the sequence (Q9H668 whole entry, stated change not applied, chain 2 of 3) above
T3 sequence (Q86WV5 whole entry, stated change not applied, chain 3 of 3): as the sequence (Q86WV5 whole entry, stated change not applied, chain 3 of 3) above

B1: 3xTEL (FP) (ssDNA)
DNA: TTAGGGTTAGGGTTAGGG
Turning to B1, the Kd is approximately 520 nM in data set [1], approximately 800 nM in data set [2], approximately 420 nM in data set [3] and 2 ± 0.16 nM in data set [4].

B2: 3xTEL (EMSA) (ssDNA)
DNA: TTAGGGTTAGGGTTAGGG
On to B2, for which the figures for the dissociation constant Kd in data set [5], in data set [6] and in data set [7] were 210 ± 106 nM, 133 ± 73 nM and 97 ± 27 nM, respectively.

For orientation: Kd means the constant that tells how readily two partners part at equilibrium. A higher Kd goes with weaker binding.
